The series deals with human Burkitt lymphoma Raji cells. The experiment in a line: Test Example 1: cytotoxic action of complement and antibody drug (rituximab) with sample added, PI method. The settings on record: for Cytotoxic activity (%): 100 μl/well of 1000 μg/ml sample, 1 hour, PI. In kind it is cell-based. As to the method:
Test Sample 1 was prepared with the lactoferrin hydrolysate mixture prepared in Preparation Example 1, of which concentration was adjusted to 1000 μg/ml in RPMI 1640 medium (Sigma, catalog number: R8758) containing 7.5% fetal bovine serum (Gibco, catalog number: 10099-141) and 1% penicillin-streptomycin (Gibco, catalog number: 15070-063) [henceforth this solution is referred to as “dilution solution”]. Furthermore, Control Sample 1 was prepared by diluting lactoferrin to a concentration of 1000 μg/ml with the dilution solution.
As target cells for measurement of cytotoxic action of complement and antibody drug, human Burkitt lymphoma Raji cells (ATCC CCL-86, obtained from American Type Culture Collection (10801 University Boulevard, Manassas, Va. 20110-2209, USA)) were used, and the cells were suspended at a density of 2×10^6 cells/ml by using the dilution solution to prepare a Raji cell suspension. As an antibody drug solution, rituximab (Zenyaku Kogyo, sold by Nippon Roche) that recognizes the CD20 antigen was used, and it was prepared at a concentration of 200 μg/ml using the dilution solution. As a complement solution, Human serum AB (Cosmobio, catalog number: 832000027) was used. These antibody drug solution and complement solution were also used for Test Examples 2 to 5 described below.
Viability determination of the cells was performed by the method using propidium iodide (PI, Dojindo, catalog number: P378) [Cytometry, Vol. 8, No. 4, pp. 421-426, 1987] or the method using Calcein-AM (Dojindo, catalog number: 341-07901) [Apoptosis, Vol. 3, No. 3, pp. 195-202, 1998].
The Raji cell suspension was added to each well of a 24-well culture plate (NUNC, catalog number: 143982) in a volume of 100 μl each (2×10^5 cells each). The 24 wells were divided into four groups, to wells (6 wells) of one group among them, 50 μl/well of the antibody drug solution and 250 μl/well of dilution solution were added as “Addition of antibody drug”. Further, to wells (6 wells) of another group, 100 μl of the complement solution and 200 μl of the dilution solution were added as “Addition of complement”. Furthermore, to wells (6 wells) of another group, 50 μl of the antibody drug solution, 100 μl of the complement solution and 150 μl of the dilution solution were added as “Addition of antibody drug+complement”. To wells (6 wells) of the remaining one group, 300 μl of the dilution solution was added as “No addition”.
For the aforementioned four groups, 100 μl/well of Test Sample 1 (4 groups×2 wells), Control Sample 1 (4 groups×2 wells) or the dilution solution (4 groups×2 wells) mentioned above was added as “Test Sample Group 1”, “Control Sample Group 1” and “Negative Sample Group 1”, respectively.
By using the 24-well plate prepared as described above, the cells were cultured under the conditions of 37° C. and 5% carbon dioxide (CO2) for 1 hour using an incubator (Napco, catalog number: 5300). Then, the cells of each sample group were collected, and the rate of dead cells in each was examined by the aforementioned method using PI. Cytotoxic activity was calculated based on a case where all the target cells were killed, which was taken as 100%.

B1: Control Sample Group 1: Undecomposed commercially available bovine lactoferrin (Morinaga Milk Industry Co., Ltd.) used as control (protein, listed as Bos taurus)
chain: MKLFVPALLSLGALGLCLAAPRKNVRWCTISQPEWFKCRRWQWRMKKLGAPSITCVRRAFALECIRAIAEKKADAVTLDGGMVFEAGRDPYKLRPVAAEIYGTKESPQTHYYAVAVVKKGSNFQLDQLQGRKSCHTGLGRSAGWIIPMGILRPYLSWTESLEPLQGAVAKFFSASCVPCIDRQAYPNLCQLCKGEGENQCACSSREPYFGYSGAFKCLQDGAGDVAFVKETTVFENLPEKADRDQYELLCLNNSRAPVDAFKECHLAQVPSHAVVARSVDGKEDLIWKLLSKAQEKFGKNKSRSFQLFGSPPGQRDLLFKDSALGFLRIPSKVDSALYLGSRYLTTLKNLRETAEEVKARYTRVVWCAVGPEEQKKCQQWSQQSGQNVTCATASTTDDCIVLVLKGEADALNLDGGYIYTAGKCGLVPVLAENRKSSKHSSLDCVLRPTEGYLAVAVVKKANEGLTWNSLKDKKSCHTAVDRTAGWNIPMGLIVNQTGSCAFDEFFSQSCAPGADPKSRLCALCAGDDQGLDKCVPNSKEKYYGYTGAFRCLAEDVGDVAFVKNDTVWENTNGESTADWAKNLNREDFRLLCLDGTRKPVTEAQSCHLAVAPNHAVVSRSDRAAHVKQVLLHQQALFGKNGKNCPDKFCLFKSETKNLLFNDNTECLAKLGGRPTYEEYLGTEYVTAIANLKKCSTSPLLEACAFLTR
modifications: sig_peptide (1)...(19) Lactoferrin
B1: the “change of cytotoxic activity compared with the negative sample group” value (Addition of antibody drug + complement) was “did not increase”. Besides, the “Cytotoxic activity (%)” value runs as follows: (Addition of antibody drug + complement (rituximab, human serum AB)) 24.3%; (Addition of antibody drug only) 1.0%; (Addition of complement only) 1.2%; (No addition (no antibody drug, no complement)) 1.0%.

These data come from patent US7419667B2, “Drug for cancer therapy” (Morinaga Milk Industry Co. Ltd., priority 2004, dated 2008).
